B1: Construct No 830 after cleavage by MMP-9 (antibody)
light: DIQMTQSPSSLSASVGDRVTITCRASQSISSYLNWYQQKPGKAPKLLIYAASSLQSGVPSRFSGSGSGTDFTLTISSLQPEDFATYYCQQFHKRSPQKFGQGTKVEIKRTVAAPSVFIFPPSDEQLKSGTASVVCLLNNFYPREAKVQWKVDNALQSGNSQESVTEQDSKDSTYSLSSTLTLSKADYEKHKVYACEVTHQGLSSPVTKSFNRGEC
heavy: not shown
notes: MMP-9 digest of m27 (K33); the sample also holds the released IL-2Rα, IL-2 and IL-2Rβ; also called n830 after cleavage; not shown: remnant of CM1 and linker after MMP-9 cleavage
B2: Construct No 780 after cleavage by MMP-9 (antibody)
light: DIQMTQSPSSLSASVGDRVTITCNVDQVIANWLNWYQQKPGKAPKLLIYAASSLQSGVPSRFSGSGSGTDFTLTISSLQPEDFATYYCQQMHPRAPKQFGQGTKVEIKRTVAAPSVFIFPPSDEQLKSGTASVVCLLNNFYPREAKVQWKVDNALQSGNSQESVTEQDSKDSTYSLSSTLTLSKADYEKHKVYACEVTHQGLSSPVTKSFNRGEC
heavy: not shown
notes: MMP-9 digest of m29; the sample also holds the released IL-2Rα, IL-2 F42A and IL-2Rβ; also called n780 after cleavage; not shown: remnant of CM1 and linker after MMP-9 cleavage
B3: Construct No 870 after cleavage by MMP-9 (antibody)
light: B2 light
heavy: not shown
notes: MMP-9 digest of m33; the sample also holds the released IL-2Rγ, IL-2 and IL-2Rα; also called n870 after cleavage; not shown: remnant of CM1 and linker after MMP-9 cleavage
B4: Construct No 1051 after cleavage by MMP-9 (antibody)
light: B2 light
heavy: not shown
notes: MMP-9 digest of m36; the sample also holds the released IL-2Rα-(GGGGS)2-IL-2 fusion (no cleavable linker between the two); also called n1051 after cleavage; not shown: remnant of CM1 and linker after MMP-9 cleavage
B5: Construct No 790 after cleavage by MMP-9 (antibody)
light: B2 light
heavy: not shown
notes: MMP-9 digest of m30; the sample also holds the released IL-2Rα, IL-2 D20T and IL-2Rβ; also called n790 after cleavage; not shown: remnant of CM1 and linker after MMP-9 cleavage
B6: Construct No 880 after cleavage by MMP-9 (antibody)
light: B2 light
heavy: not shown
notes: MMP-9 digest of m34; the sample also holds the released IL-2Rγ-(GGGGS)2-IL-2 fusion (no cleavable linker between the two) and IL-2Rα; also called n880 after cleavage; not shown: remnant of CM1 and linker after MMP-9 cleavage
B7: Construct No 1021 after cleavage by MMP-9 (antibody)
light: B2 light
heavy: not shown
notes: MMP-9 digest of m35; the sample also holds the released IL-2Rα and IL-2; also called n1021 after cleavage; not shown: remnant of CM1 and linker after MMP-9 cleavage
B8: Construct No 1030 after cleavage by MMP-9 (antibody)
light: B2 light
heavy: not shown
notes: MMP-9 digest of m37; the sample also holds the released IL-2 Q126T and IL-2Rα; also called n1030 after cleavage; not shown: remnant of CM1 and linker after MMP-9 cleavage
B9: Construct No 770 after cleavage by MMP-9 (antibody)
light: B2 light
heavy: not shown
notes: MMP-9 digest of m28; the sample also holds the released IL-2Rα, IL-2 C125S and IL-2Rβ; also called n770 after cleavage; not shown: remnant of CM1 and linker after MMP-9 cleavage
B10: Construct No 800 after cleavage by MMP-9 (antibody)
light: B2 light
heavy: not shown
notes: MMP-9 digest of m31; the sample also holds the released IL-2Rα, IL-2 Q126T and IL-2Rβ; also called n800 after cleavage; not shown: remnant of CM1 and linker after MMP-9 cleavage
B11: Construct No 690 after cleavage by MMP-9 (antibody)
light: B2 light
heavy: not shown
notes: MMP-9 digest of m24; the sample also holds the released IL-2Rα and IL-2; also called n690 after cleavage; not shown: remnant of CM1 and linker after MMP-9 cleavage
B12: Construct No 2 after cleavage by MMP-9 (antibody)
light: B2 light
heavy: not shown
notes: MMP-9 digest of m3; the sample also holds the released IL-2; also called n2 after cleavage; not shown: remnant of CM1 and linker after MMP-9 cleavage
B13: Construct No 281 after cleavage by MMP-9 (antibody)
light: B2 light
heavy: not shown
notes: MMP-9 digest of m13; the sample also holds the released IL-2; also called n281 after cleavage; not shown: remnant of CM1 and linker after MMP-9 cleavage
B14: Construct No 490 after cleavage by MMP-9 (antibody)
light: B2 light
heavy: not shown
notes: MMP-9 digest of m20; the sample also holds the released IL-2, IL-2Rα (to 185) and IL-2Rβ; also called n490 after cleavage; not shown: remnant of CM1 and linker after MMP-9 cleavage
B15: Construct No 530 after cleavage by MMP-9 (antibody)
light: B2 light
heavy: not shown
notes: MMP-9 digest of m18; the sample also holds the released IL-2, IL-2Rα and IL-2Rβ; also called n530 after cleavage; not shown: remnant of CM1 and linker after MMP-9 cleavage
B16: Construct No 471 after cleavage by MMP-9 (antibody)
light: B2 light
heavy: not shown
notes: MMP-9 digest of m17; the sample also holds the released IL-2, IL-2Rα and IL-2Rβ; also called n471 after cleavage; not shown: remnant of CM1 and linker after MMP-9 cleavage
B17: Construct No 545 after cleavage by MMP-9 (antibody)
light: B2 light
heavy: not shown
notes: MMP-9 digest of m19; the sample also holds the released IL-2, IL-2Rα and IL-2Rβ; also called n545 after cleavage; not shown: remnant of CM1 and linker after MMP-9 cleavage
B18: Construct No 500 after cleavage by MMP-9 (antibody)
light: B2 light
heavy: not shown
notes: MMP-9 digest of m21; the sample also holds the released IL-2, IL-2Rβ and IL-2Rα; also called n500 after cleavage; not shown: remnant of CM1 and linker after MMP-9 cleavage
B19: Construct No 450 after cleavage by MMP-9 (antibody)
light: B2 light
heavy: not shown
notes: MMP-9 digest of m16; the sample also holds the released IL-2, IL-2Rα and IL-2Rβ; also called n450 after cleavage; not shown: remnant of CM1 and linker after MMP-9 cleavage
B20: Construct No 291 after cleavage by MMP-9 (antibody)
chain 1: B2 light
chain 2: not shown

Target: T1, His-tagged human CD47 (human, UniProt Q08722 19-139, limits assumed)
T1 construct: loaded on HIS1K biosensors at 2.5 µg/mL; also called target antigen; not shown: His tag
Test: BLI, His-CD47 on HIS1K sensor, after MMP-9 treatment
Experimental: The capacity of the masking domains to inhibit binding activity of the antibody was evaluated by Bio-Layer Interferometry (BLI). […] Binding experiments were performed to evaluate the masking efficiency and the binding recovery after cleavage of the masking domains. BLI was performed on an Octet RED96 system (Sartorius). His-tagged human CD47 was diluted at 2.5 μg/mL in Kinetic Buffer (KB) (Sartorius) and loaded on HIS1K biosensors (anti-His tag antibody biosensors, Sartorius) for 300 seconds. Loaded biosensors were dipped into antibodies diluted at 15 μg/mL in KB for 300 seconds to monitor association. Then, biosensors were transferred in KB for dissociation for 60 seconds. Binding profiles were then analyzed with ForteBio Data Analysis software.

Row | Binder | Binding after cleavage (BLI) [nm]
1 | B1 | 1.7
2 | B2 | 1.7
3 | B3 | 1.3
4 | B4 | 1.2
5 | B5 | 1.4
6 | B6 | 1.1
7 | B7 | 1.3
8 | B8 | 1.3
9 | B9 | 1.7
10 | B10 | 1.5

Target: T2, low-moderate affinity dimeric IL-2R (IL-2Rβ and IL-2Rγ) on HEK-Blue CD122/CD132 cells (UniProt P14784 27-551; P31785 23-369, limits assumed)
T2 sequence (looked up) 1: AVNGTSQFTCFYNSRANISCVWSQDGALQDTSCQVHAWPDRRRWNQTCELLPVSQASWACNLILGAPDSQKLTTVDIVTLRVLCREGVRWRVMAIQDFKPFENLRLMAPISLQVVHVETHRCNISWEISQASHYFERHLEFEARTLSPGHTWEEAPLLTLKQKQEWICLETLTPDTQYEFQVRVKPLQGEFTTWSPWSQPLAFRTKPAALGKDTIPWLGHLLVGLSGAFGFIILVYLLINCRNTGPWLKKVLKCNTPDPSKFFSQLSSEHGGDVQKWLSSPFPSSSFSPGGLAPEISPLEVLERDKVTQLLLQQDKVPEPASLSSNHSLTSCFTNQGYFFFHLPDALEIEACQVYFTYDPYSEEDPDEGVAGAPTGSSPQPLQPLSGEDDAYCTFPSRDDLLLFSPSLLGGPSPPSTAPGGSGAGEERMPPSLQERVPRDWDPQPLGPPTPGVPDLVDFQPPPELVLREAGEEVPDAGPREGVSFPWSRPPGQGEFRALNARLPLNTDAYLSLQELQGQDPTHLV
T2 sequence (looked up) 2: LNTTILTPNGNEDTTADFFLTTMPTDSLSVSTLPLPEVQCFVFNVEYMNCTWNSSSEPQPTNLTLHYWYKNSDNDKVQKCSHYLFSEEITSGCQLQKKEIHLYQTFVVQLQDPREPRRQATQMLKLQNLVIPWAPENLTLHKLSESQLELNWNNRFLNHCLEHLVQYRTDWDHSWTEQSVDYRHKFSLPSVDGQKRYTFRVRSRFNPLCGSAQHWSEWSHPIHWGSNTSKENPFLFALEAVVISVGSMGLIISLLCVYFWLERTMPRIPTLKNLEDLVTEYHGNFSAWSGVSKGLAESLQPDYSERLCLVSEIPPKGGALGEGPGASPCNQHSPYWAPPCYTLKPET
Test: cell-based or functional assay

Row | Binder | EC50 after cleavage IL-2, HEK Blue IL-2 βγ reporter assay [nM]
11 | B1 | 0.01
12 | B11 | 0.03
13 | B12 | 0.09
14 | B2 | 0.01
15 | B3 | 0.03
16 | B5 | 0.07
17 | B6 | 0.02
18 | B9 | 0.01
19 | B10 | 1.14

Target: T3, high affinity trimeric IL-2R (IL-2Rα, IL-2Rβ and IL-2Rγ) on HEK-Blue IL-2 cells (UniProt P01589 22-272; P14784 27-551; P31785 23-369)
T3 sequence (looked up) 1: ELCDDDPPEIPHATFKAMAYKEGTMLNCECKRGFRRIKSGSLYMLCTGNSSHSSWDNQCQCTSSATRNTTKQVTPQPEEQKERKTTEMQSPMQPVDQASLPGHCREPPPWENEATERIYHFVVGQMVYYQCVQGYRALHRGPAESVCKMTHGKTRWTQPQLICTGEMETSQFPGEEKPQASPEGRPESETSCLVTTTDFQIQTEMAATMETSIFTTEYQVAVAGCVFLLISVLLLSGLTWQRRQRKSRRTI
T3 sequence (looked up) 2: T2 sequence (looked up) 1
T3 sequence (looked up) 3: T2 sequence (looked up) 2
Test: cell-based or functional assay

Row | Binder | EC50 after cleavage IL-2, HEK Blue IL-2 αβγ reporter assay [nM]
20 | B1 | 0.01
21 | B11 | 0.07
22 | B12 | 0.11
23 | B2 | 0.02
24 | B13 | 0.01
25 | B3 | 0.01
26 | B4 | 0.03
27 | B5 | 0.04
28 | B6 | 0.04
29 | B14 | 0.01
30 | B7 | 0.01
31 | B8 | 0.23
32 | B15 | 0.01
33 | B16 | 0.01
34 | B17 | 0.01
35 | B9 | 0.02
36 | B10 | 0.48
37 | B18 | 0.02
38 | B19 | 0.01
39 | B20 | 0.01

Target: T4, CD47 at the surface of Peak cells (human, UniProt Q08722 19-323)
T4 construct: whole, on cells; also called cell surface CD47
Test: flow cytometry, Peak cells, after MMP-9 treatment
Experimental: Binding activity of antibody-cytokine/receptor fusions before and after cleavage was also evaluated by flow cytometry. Peak cells derived from HEK 293 which are human cells expressing CD47 were used to evaluate masking efficacy and binding recovery to CD47 by flow cytometry. Peak cells were diluted in cold FACS buffer (PBS, 2% BSA) to 1.2×10⁶ cells/mL. 3×10⁵ cells/well were added in a 96 well V-bottom plate. The plate was then centrifugated for 5 min at 1300 rpm, 4° C. Supernatants were removed and cells were washed twice using FACS buffer. A serial dilution of antibody-cytokine/receptor fusions previously digested with MMP-9 or not digested as described above was prepared in FACS buffer. An irrelevant antibody was included. Then, 150 μL of each diluted antibody were added in corresponding well and incubated for 30 min at 4° C. Cells were washed twice with FACS buffer and 100 μL of a mouse anti human Fc-PE conjugated secondary antibody were added and the plate was incubated for 20 min at 4° C. Cells were then washed twice with FACS buffer. Finally, 150 μL of SYTOX blue dead cell stain (ThermoFisher) diluted to 1/5000 in FACS buffer were added before detection by flow cytometry with Cytoflex (Beckman Coulter). Acquisition was performed with 10000 events for each well. Data were analyzed by FlowJo software.

Row | Binder | EC50 [nM]
40 | B11 | 0.4
41 | B12 | 0.4
42 | B2 | 1
43 | B13 | 0.9
44 | B3 | 1.3
45 | B4 | 1.7
46 | B5 | 1.6
47 | B6 | 2.6
48 | B14 | 0.5
49 | B7 | 1.3
50 | B8 | 0.8
51 | B15 | 0.4
52 | B16 | 0.3
53 | B17 | 0.6
54 | B9 | 0.5
55 | B10 | 1.5
56 | B18 | 0.8
57 | B19 | 0.4
58 | B20 | 0.4
